{"source": "paper PMC6897951", "about": "“Unusual features of the c-ring of F1FO ATP synthases” (Scientific Reports, 2019)", "target": "the molecule itself", "test": "crystal structure; in meso crystallisation (monooleoyl lipidic phase) of solubilised cF1FO, 27.4 mg/mL, 0.1 M MES pH 5.8, 1.4 M ammonium sulfate, 22 °C; space group I121; 2.3 Å"}
{"protein": "c-subunit of the spinach chloroplast F1FO ATP synthase (cF1FO), as the c14-ring (natural protein, Spinacia oleracea (spinach), UniProt P69447 1-81, looked up, ATP synthase subunit c of the chloroplast FO, Spinacia oleracea; Native protein from leaves; also called c1 subunit; c1 protomer; source: only the c14-ring crystallised; copies: 14) MNPLIAAASVIAAGLAVGLASIGPGVGQGTAAGQAVEGIARQPEAEGKIRGTLLLSLAFMEALTIYGLVVALALLFANPFV", "values": [{"measurement": "stoichiometry N", "result": 14}]}
